Reference: US20130157929A1, “GLUCAGON ANALOGUES” (ZEALAND PHARMA A/S, published 2013)
Starred links: 1 amine or outer side, 2 acyl side, 3 side chain; linkers in the order of their positions; H or OH if unused. Non-standard residues stand in square brackets, D forms with d. Groups on a side chain read outwards from the residue. *: point of attachment. γGlu = O=C(O)[C@H](CCC(=O)[*:2])N[*:1]; Palmitoyl = CCCCCCCCCCCCCCCC(=O)*; Aib = CC(C)(N)C(=O)O

B1: Compound 17 (peptide)
peptide: H-H[Aib]AGTFTSDYSKYLDSK([γGlu-Palmitoyl])AAHDFVEWLLSA-NH2
SMILES: CCCCCCCCCCCCCCCC(=O)N[C@@H](CCC(=O)NCCCC[C@H](NC(=O)[C@H](CO)NC(=O)[C@H](CC(=O)O)NC(=O)[C@H](CC(C)C)NC(=O)[C@H](Cc1ccc(O)cc1)NC(=O)[C@H](CCCCN)NC(=O)[C@H](CO)NC(=O)[C@H](Cc1ccc(O)cc1)NC(=O)[C@H](CC(=O)O)NC(=O)[C@H](CO)NC(=O)[C@@H](NC(=O)[C@H](Cc1ccccc1)NC(=O)[C@@H](NC(=O)CNC(=O)[C@H](C)NC(=O)C(C)(C)NC(=O)[C@@H](N)Cc1c[nH]cn1)[C@@H](C)O)[C@@H](C)O)C(=O)N[C@@H](C)C(=O)N[C@@H](C)C(=O)N[C@@H](Cc1c[nH]cn1)C(=O)N[C@@H](CC(=O)O)C(=O)N[C@@H](Cc1ccccc1)C(=O)N[C@H](C(=O)N[C@@H](CCC(=O)O)C(=O)N[C@@H](Cc1c[nH]c2ccccc12)C(=O)N[C@@H](CC(C)C)C(=O)N[C@@H](CC(C)C)C(=O)N[C@@H](CO)C(=O)N[C@@H](C)C(N)=O)C(C)C)C(=O)O
B2: Compound 18 (peptide)
peptide: H-H[Aib]SGTFTSDYSKYLDSK([γGlu-Palmitoyl])AAHDFVEWLLSA-NH2
SMILES: CCCCCCCCCCCCCCCC(=O)N[C@@H](CCC(=O)NCCCC[C@H](NC(=O)[C@H](CO)NC(=O)[C@H](CC(=O)O)NC(=O)[C@H](CC(C)C)NC(=O)[C@H](Cc1ccc(O)cc1)NC(=O)[C@H](CCCCN)NC(=O)[C@H](CO)NC(=O)[C@H](Cc1ccc(O)cc1)NC(=O)[C@H](CC(=O)O)NC(=O)[C@H](CO)NC(=O)[C@@H](NC(=O)[C@H](Cc1ccccc1)NC(=O)[C@@H](NC(=O)CNC(=O)[C@H](CO)NC(=O)C(C)(C)NC(=O)[C@@H](N)Cc1c[nH]cn1)[C@@H](C)O)[C@@H](C)O)C(=O)N[C@@H](C)C(=O)N[C@@H](C)C(=O)N[C@@H](Cc1c[nH]cn1)C(=O)N[C@@H](CC(=O)O)C(=O)N[C@@H](Cc1ccccc1)C(=O)N[C@H](C(=O)N[C@@H](CCC(=O)O)C(=O)N[C@@H](Cc1c[nH]c2ccccc12)C(=O)N[C@@H](CC(C)C)C(=O)N[C@@H](CC(C)C)C(=O)N[C@@H](CO)C(=O)N[C@@H](C)C(N)=O)C(C)C)C(=O)O
B3: Compound 16 (peptide)
peptide: H-H[Aib]VGTFTSDYSKYLDSK([γGlu-Palmitoyl])AAHDFVEWLLSA-NH2
SMILES: CCCCCCCCCCCCCCCC(=O)N[C@@H](CCC(=O)NCCCC[C@H](NC(=O)[C@H](CO)NC(=O)[C@H](CC(=O)O)NC(=O)[C@H](CC(C)C)NC(=O)[C@H](Cc1ccc(O)cc1)NC(=O)[C@H](CCCCN)NC(=O)[C@H](CO)NC(=O)[C@H](Cc1ccc(O)cc1)NC(=O)[C@H](CC(=O)O)NC(=O)[C@H](CO)NC(=O)[C@@H](NC(=O)[C@H](Cc1ccccc1)NC(=O)[C@@H](NC(=O)CNC(=O)[C@@H](NC(=O)C(C)(C)NC(=O)[C@@H](N)Cc1c[nH]cn1)C(C)C)[C@@H](C)O)[C@@H](C)O)C(=O)N[C@@H](C)C(=O)N[C@@H](C)C(=O)N[C@@H](Cc1c[nH]cn1)C(=O)N[C@@H](CC(=O)O)C(=O)N[C@@H](Cc1ccccc1)C(=O)N[C@H](C(=O)N[C@@H](CCC(=O)O)C(=O)N[C@@H](Cc1c[nH]c2ccccc12)C(=O)N[C@@H](CC(C)C)C(=O)N[C@@H](CC(C)C)C(=O)N[C@@H](CO)C(=O)N[C@@H](C)C(N)=O)C(C)C)C(=O)O

Target: human glucagon receptor (glucagon-R) (human, UniProt P47871)
Experiment: cell-based or functional assay

Point of comparison: B1, “EC50 (nM) GluR, cAMP formation” value 3.4 nM. Against it:
- B2 — 2.4-fold higher, 8 nM
- B3 — within 1.5-fold, 3 nM

Target: human glucagon-like peptide 1 receptor (GLP-1R) (human, UniProt P43220)
Experiment: cell-based or functional assay

Point of comparison: B3, “EC50 (nM) GLP-1R, cAMP formation” value 0.13 nM. Against it:
- B1 — within 1.5-fold, 0.09 nM
- B2 — within 1.5-fold, 0.09 nM
